Test results as given in patent US7262177B2, “Conjugates of glycosylated/galactosylated peptide, bifunctional linker, and nucleotidic monomers/polymers, and related compositions and methods of use” (priority 2000, dated 2007).
Several values for one entry are separate records, joined by “and”; a condition that tells them apart may be missing. Identical values can stand only once.

What was measured:
TS = biological target: T1, TS (Mus musculus, UniProt P07607); assay: TS activity in liver of xenografted mice; type: in vivo, CD-1 nude mice; settings: treated
T1 construct: from tissue; host or cells: liver of CD-1 nude mice
T1 sequence (P07607 whole entry): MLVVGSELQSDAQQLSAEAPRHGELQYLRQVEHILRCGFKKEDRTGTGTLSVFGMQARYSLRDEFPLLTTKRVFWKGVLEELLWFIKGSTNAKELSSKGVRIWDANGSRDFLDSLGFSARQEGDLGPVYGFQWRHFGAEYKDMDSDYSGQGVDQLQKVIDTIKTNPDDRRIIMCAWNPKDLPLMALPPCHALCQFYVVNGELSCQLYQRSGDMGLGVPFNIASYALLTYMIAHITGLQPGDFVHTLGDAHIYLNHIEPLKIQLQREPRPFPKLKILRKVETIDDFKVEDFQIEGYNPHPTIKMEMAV
Protocol: Initial effects of po 1-mer treatment were noticed after about 5 weeks. Overall, however, tumors continued to grow after this point, but at a slower rate than the control. For instance, at 8 weeks post po 1-mer treatment, the average tumor weight of xenografted human hepatomas in nude CD-1 mice was about 7 g, whereas the average tumor weight of the saline control was about 15 g. Histological analysis was performed after 8 weeks in order to compare the tumors of the control cohort with the tumors of po 1-mer-treated nude mice. […] This weight loss may then be due to the tumor burden, rather than the therapeutic treatment, and was continued through week 8.
After the treatment was completed, tumors were analyzed both histologically and for TS activity. […] Therefore, it can be deduced that increasing the dose of po 1-mer increased the efficacy without increasing systemic toxicity.

alpha-fetoprotein (AFP) = assay: Serum AFP levels in tumor-bearing nude mice; type: in vivo, human; settings: for level of AFP: 15 mg/kg weekly
Excerpt: Xenotransplanted tumors have been previously shown to be responsive to 5FU chemotherapy as assayed by direct physical measurement of the tumor (Houghton et al., Biochem. Pharmacol., 36, 1285-1289 (1987)), histological changes and biochemical measurements, such as alpha-fetoprotein (AFP) levels (Lemoine et al., Pathol. Biol. (Paris), 47, 903-910 (1999)) and thymidylate synthase levels (Peters et al., J. Clin Oncol., 12, 2035-2042 (1994)). The xenograft tumors in nude mice are a widely used model for tumor studies that allows for direct measurement of the growth of human tumors. Male CD-1 nude mice (6-8 weeks old, 20-22 g in weight) were used for these bioefficacy studies. An injection of 10^8 Hep G2 cells was made subcutaneously into the subcapsular region of each mouse. Mice were observed daily for tumor formation. After tumors emerged, they were measured twice a week in two dimensions with sliding calipers. When the tumors reached a weight of 100 mg in weight as determined by the formula: [(weight, mg)=(length (mm)×width (mm))^2/2], treatment was initiated (Geran et al., Cancer Chemother. Rep., 3, 51-61 (1972)). Initially, mice were treated with 10 mg/kg dose once/week for 8 weeks. Subsequently, separate cohorts of mice were treated with 15 mg/kg weekly for 8 weeks and finally 10 mg/kg twice weekly for 8 weeks. The impact of treatment upon tumor growth was judged by direct measurement as described above. In addition, tumor progression was tracked by serological measurements, such as AFP levels. AFP levels were assayed weekly following each injection. Blood was taken retro-orbitally from each mouse. AFP levels were assayed immunochemically, using kits supplied by Abbott Laboratories (Waukegan, Ill.) and based on the methods of Wang et al. (Cancer Res., 50, 869s-872s (1990)). Measurements of AFP levels were intended to complement direct physical measurement as an indicator of tumor progression. Generally, serum AFP levels behave as if they reflect tumor mass. […]

TSU carcinoma cells = assay: Viability of TSU carcinoma cells; type: cell-based, human; settings: TSU carcinoma cells treated with conjugate
[1] = Serum stability of po 1-mer conjugate, HPLC method (a), column 1; type: in vitro ADME; settings: 37° C.; for Average Peak area / Trial Peak area: human serum
Protocol: Studies were carried out at physiological conditions. The analyses were accomplished using reversed-phase HPLC and PAGE methods. The raw data are presented in table format (Tables 1, 2 and 3). The serum half-life calculated is t1/2=1/k (0.693), derived from the [A]=[A0]e^−kt, where [A0] is the original amount of substrate, [A] is the measured substrate level, t is time (min), and k is the first-order rate constant.
(a) Reaction Conditions: 50 μl of human serum were added to 24 nmoles of HPLC purified po 1-mer Conjugate and incubated at 37° C. for allotted time periods (0 min, 60 min, 180 min, 360 min). Column 1: flow 1.0 ml/min, Rainin MicroSorb C18 reversed-phase column HPLC gradient: 100% NH4OAc for 10 min, then 0→100% CH3CN in 25 min. (0.1 M NH4OAc) (Table 1).

Hep G2 cells = assay: Inhibition of Hep G2 cellular proliferation (cell counting), 1-mer conjugates; type: cell-based, human
Protocol: Hep G2 cells were seeded into a 48-well plate in RPMI supplemented with 10% FCS at a density of 5×10^4 cells/well. Cells were then allowed to incubate at 37° C., 95% RH, 5% CO2 for 24 hrs. After this incubation period, the maintainence medium was aspirated and cells were treated with various concentrations of neoglycoconjugate in 200 μl of RPMI supplemented with 10% FCS. Control wells were treated with 200 μl of RPMI+10% FCS alone. At 0, 24, 48, 72 and 96 hrs, six wells for each condition were washed twice with 0.5 ml of DPBS and treated with 0.5 ml of trypsin (0.25%; prepared in HBSS with 1.0 mM EDTA). Cell number for each condition were determined a using a Coulter electronic cell counter. In all cases, the extent of inhibition of proliferation increased as a function of time. […] Therefore, the type of linkage that conjugates the nucleotide analog to YEE(ahGalNAc)3 influences the ability to inhibit proliferation.

SMILES: CC(=O)N[C@H]1[C@H](OCCCCCCNC(=O)CC[C@H](NC(=O)CC[C@H](NC(=O)[C@H](Cc2ccc(O)cc2)NC(=O)C2CCC(CN3C(=O)CC(SCCCCCCOP(=O)(O)OC[C@H]4O[C@@H](n5cc(F)c(=O)[nH]c5=O)C[C@@H]4O)C3=O)CC2)C(=O)NCCCCCCO[C@@H]2O[C@H](CO)[C@H](O)[C@H](O)[C@H]2NC(C)=O)C(=O)NCCCCCCO[C@@H]2O[C@H](CO)[C@H](O)[C@H](O)[C@H]2NC(C)=O)O[C@H](CO)[C@H](O)[C@@H]1O (some centres unmarked) [po 1-mer, YEE(ahGalNAc)3-SMCC-poFU]
- TS activity, COUNTS/MG PROTEIN (TS; weekly 10 mg/kg): 19718 counts/mg protein
- TS activity, COUNTS/MG PROTEIN (TS; weekly 15 mg/kg): 18989 counts/mg protein
- AFP measurements (alpha-fetoprotein (AFP); 10 mg/kg twice weekly, week 6): below the limits of detection
- level of AFP (alpha-fetoprotein (AFP); after 3 weeks of treatment): less than 200 μg/ml
- level of AFP (alpha-fetoprotein (AFP); week 8): below the level of detection
- viability of cells (TSU carcinoma cells): not affected
- Average Peak area ([1]; 0 min): 17.78
- Trial Peak area ([1]; 0 min, listed as po 1-mer Conjugate): 17.65 and 17.92
- Average Peak area ([1]; 60 min): 13.77
- Trial Peak area ([1]; 60 min, listed as po 1-mer Conjugate): 15.11 and 12.43
- Average Peak area ([1]; 180 min): 10.17
- Trial Peak area ([1]; 180 min, listed as po 1-mer Conjugate): 9.356 and 10.9908
- Average Peak area ([1]; 360 min): 11.4
- Trial Peak area ([1]; 360 min): 11.4
- half-life at 480 µM ([1]; human, serum, HPLC (a), read-out: serum t1/2): 578 min
- inhibition of proliferation (Hep G2 cells; 1 μM, compared to untreated control, listed as po-linked conjugate): 64%
- more active than the ps-linked conjugate (Hep G2 cells; in vitro proliferation of Hep G2 cells): approximately 30%
